Our source for the binding result and koff values is patent US20240368233A1 (University of Washington, published 2024).

The chains are these.
T1: 101B62
T1 construct: also called LHD101B62
T1 chain: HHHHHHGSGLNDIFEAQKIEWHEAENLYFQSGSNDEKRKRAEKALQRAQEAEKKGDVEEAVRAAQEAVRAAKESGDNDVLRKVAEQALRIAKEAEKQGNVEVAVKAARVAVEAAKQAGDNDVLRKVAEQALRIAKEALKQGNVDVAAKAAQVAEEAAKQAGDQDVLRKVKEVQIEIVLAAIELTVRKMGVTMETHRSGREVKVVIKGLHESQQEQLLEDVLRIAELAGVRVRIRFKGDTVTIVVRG

T2: LHD101 chainA
T2 construct: also called LHD101A
T2 chain: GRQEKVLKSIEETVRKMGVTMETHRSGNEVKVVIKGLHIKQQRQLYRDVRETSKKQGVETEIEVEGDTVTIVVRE

T3: 274B53
T3 construct: also called LHD274B DHR53 stop
T3 chain: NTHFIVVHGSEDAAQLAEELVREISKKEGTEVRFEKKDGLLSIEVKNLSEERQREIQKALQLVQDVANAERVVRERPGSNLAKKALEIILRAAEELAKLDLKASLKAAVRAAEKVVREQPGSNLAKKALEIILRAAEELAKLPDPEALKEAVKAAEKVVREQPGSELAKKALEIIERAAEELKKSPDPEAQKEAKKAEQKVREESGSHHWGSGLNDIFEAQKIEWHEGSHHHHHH

T4: LHD101 chainB
T4 construct: also called LHD101B
T4 chain: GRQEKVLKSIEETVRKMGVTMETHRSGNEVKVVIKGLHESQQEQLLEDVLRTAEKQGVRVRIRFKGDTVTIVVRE

T5: DF202
T5 construct: Bivalent connector
T5 chain: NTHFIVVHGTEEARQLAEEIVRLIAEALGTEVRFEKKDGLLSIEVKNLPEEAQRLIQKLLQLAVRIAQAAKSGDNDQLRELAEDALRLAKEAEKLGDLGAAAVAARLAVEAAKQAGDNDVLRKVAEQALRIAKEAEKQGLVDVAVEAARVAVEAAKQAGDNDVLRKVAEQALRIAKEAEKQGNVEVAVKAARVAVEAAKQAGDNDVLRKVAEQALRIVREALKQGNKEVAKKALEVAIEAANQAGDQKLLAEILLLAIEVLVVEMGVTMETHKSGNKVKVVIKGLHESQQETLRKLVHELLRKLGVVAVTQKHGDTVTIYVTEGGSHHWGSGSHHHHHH

B1: 29B53 (designed binder)
chain: SSIFLLSNVDESARQLAEELVREISKKEGTEVRFEKDDGFLTIEVKNLSEERLREIARALQLIVDVANAERVVRERPGSNLAKKALEIILRAAEELAKLPLKASLKAAVIAAELVVREQPGSNLAKKALEIILRAAEELAKLPDPEALKEAVKAAEKVVREQPGSELAKKALEIIERAAEELKKSPDPEAQKEAKKAEQKVREERPGSSGSHHHHHH
notes: also called LHD29B53
B2: LHD101 A10 (designed binder)
single chain, LHD101 chain A fused to DHR10: HHHHHHGSGLNDIFEAQKIEWHEAENLYFQSGSSSEKEELRERLVKIVVENAKRKGDDTEEAREAAREAFELVREAAERAGIDSSEVLELAIRLIKEVVENAQREGYDISEAARAAAEAFKRVAEAAKRAGITSSEVLELAIILIKLVVELAQRKGYDISEAARAAAELFKRLAEALKRAGKTSERALALLILLLAIEILVRDMGVTMETHPSGNEVKVVIKGLHIKQQRQLYRLVREAAKLLGVEVEIEVEGDTVTIVVRGGS
B3: 101B4 (designed binder)
chain: HHHHHHGSGLNDIFEAQKIEWHEAENLYFQSGSYEDECEEKARRVAEKVERLKRSGTSEDEIAEEVAREISEVIRTLKESGSSYEVICECVARIVAEIVEALKRSGTSEDEIAEIVARVISEVIRTLKESGSSYEVICECVARIVAEIVEALKRSGTSEEEIAEIVARVIQEVIRTLKESGSSYEVIRECLRRILEEVIEALKRSGVDSSEIVLIIIKIAVAVMGVTMEEHRSGNEVKVVIKGLHESQQEELLELVLRAAELAGVRVRIRFKGDTVTIVVRG
notes: also called LHD101B4
B4: 202B64 (designed binder)
single chain, LHD202 chain B fused to DHR64: GSSVEFHIVNIDEDVAQLIELAVKLISKEEGTEVRFEKRDGELTIEVKNLHEKDLQLILELIEALLLIARAIELLRQAKEKGSEEDLEKALRTAEESARRLKKVLEKAEKLGNLGVALAAVAGVVLVAELLLRIAKESGSEEALERALRVAEEAARLAKRVLELAEKLGDAEAALLAVELVVRVAELLLRIAKESGSEEALERALRVAEEAARLAKRVLELAEKQGDAEVARRAVELVKRVAELLERIARESGSEEAKERAERVREEARELQERVKELREREGDGSHHWGSGLNDIFEAQKIEWHEGSHHHHHH
notes: also called LHD202 B64
B5: 101B14 (designed binder)
single chain, LHD101 chain B fused to DHR14: HHHHHHGSGLNDIFEAQKIEWHEAENLYFQSGSSEEVNERVKQLAEKAKEATDKEEVIEIVKELAELAKQSTDSELVNEIVKQLAEVAKEATDKELVIYIVKILAELAKQSTDSELVNEIVKQLAEVAKEATDKELVIYIVDILLKLAEQADDDELVEEIRKQLEEVAKEATDKELVEIIKAVIVLLVIISVVARMGVTMEIHKSGREVKVVIKGLHESQQEQLLEAVLRAAEEAGVRVRIRFKGDTVTIVVRG
notes: also called LHD101 B14
B6: 278B (designed binder)
chain: GGSTVTFDITNIDWKSAELIMLAVYDIAQQEGTDVTFSFKEGELQITVKNLHEKWKRLIEMLIEACRRAQDPDPESLKEAVRIAEELVRLHPGNPLARAALKVILTAAEELAKLPDPEALKEAVKAAEKVVREQPGSNLAKKALEIILRAAEELAKLPDPEALKEAVKAAEKVVREQPGSELAKKALEIIERAAEELKKSPDPEAQKEAKKAEQKVREERPGSGGSGSHHWGSGSHHHHHH
notes: also called LHD278 B; LHD278 chainB
B7: LHD274 A76 (designed binder)
single chain, LHD274 chain A fused to DHR76: GSTTNFHLINGSEEARQVIEEIVEIIARLAGTEVHFEKSDGTLEIRVKNLHEELERLIKELIELALLLQLAKKEAIEEAKKQGNPELVEWVARAAEVVKEVLRVAAEAAGAGNPDLAKAAAELARAVIEAIEEAVKQGNAELVEWVARAAKVAAEVIKVAIQAEKEGNRDLFRAALELVRAVIEAIEEAVKQGNAELVERVARLAKKAAELIKRAIRAEKEGNRDERREALERVREVIERIEELVRQGNGSHHWGSGLNDIFEAQKIEWHEGSHHHHHH
B8: LHD101A V69Q (designed binder)
chain: T2 chain with V69Q
B9: LHD101A_R43V (designed binder)
chain: T2 chain with R43V
B10: LHD101A_T70W (designed binder)
chain: T2 chain with T70W
B11: LHD101A_Q42M (designed binder)
chain: T2 chain with Q42M
B12: 202B57 (designed binder)
chain: GSSVEFHIVNISEKAAQIIERAVRAISKELGTEVRFEKRDGELTIEVKNLHERRLQEILLLIEAVKLLLLALKAVKEDPSTDALRAVLEAVRFASEVAKRVENPEAVAVLAELVIELALEAVKEDPSTDALRAVLEAVRLASEVAKRVTDADKALKIAKLVIELALEAVKEDPSEEAKRAVEEAKRLAEEVSKRVTDPELSEKIRQLVKELEEEAQKEDPSGSHHWGSGLNDIFEAQKIEWHEGSHHHHHH

Data set [1] concerns the molecule itself. Nature of the data set: SEC titration of the protomer alone at several injection concentrations (Superdex 200, normalised A230); self-association.
A further data set deals with T1, 101B62. The data set is described as follows: SEC binding assay (Superdex 200, normalised A230) of A, B and the mixture AB. The method, then:
(§1) Complexes and individual components were diluted in 20 mM Tris pH 8.0, 100 mM NaCl. After o/n equilibration of the mixtures at room temperature or 4 degrees C., 500 ul of sample was injected onto a Superdex™ 200 10/300 increase GL (dimers, linear assemblies) or Superose™ 6 increase 10/300 GL (symmetric assemblies) (all columns from GE healthcare) using the absorbance at 230 nm or 473 nm (for GFP tagged components) as read-out. Dimers were mixed at monomer concentrations of 5 μM or higher. Trimer and ABCD tetramer mixtures contained 5 μM of the bivalent connector, and 7.5 μM of each terminal cap (lower absolute concentrations with the same ratios were used for some trimers). ABCA tetramer mixtures contained 5 μM per bivalent connector and 15 μM terminal cap. The hexamer mixture contained 3 μM of components C and D, 3.6 μM of B and E, and 4.4 μM of A and F. The branched assembly shown in FIG. 4A contained 2.8 μM of the trivalent connector and 4 μM of each cap. For the exchange experiment shown in FIG. 5A, the ABC trimer was preincubated at concentrations of 6 μM B and 9 μM each of A and C. C′ was then added to reach a final concentration of 2 μM B, 3 μM each of A and C, and 6 μM C′.

The target in the data set “101B14” is B5. The description is as above. Here is the method:
as §1

For another data set, the target named is T2, LHD101 chainA. The data set is described as follows: BLI steady-state titration, biotinylated unfused LHD101A on a streptavidin sensor. The source says:
FIG. 8A-E. Characterization LHD binding in vitro. A: Designed models heterodimers (top row). Middle row, SEC binding experiments performed on a Superdex™ 75 column. Bottom row, biolayer interferometry kinetic binding traces. […] C: Kinetic binding traces from BLI. Equilibrium responses were used to fit equilibrium binding curves D: Equilibrium binding curves of LHDs from biolayer interferometry binding assays with data from C. […] Biotinylated unfused protomers were immobilized on streptavidin coated biosensors.
Biolayer interferometry experiments were performed on an OctetRED96 BLI system (ForteBio, Menlo Park, CA). Streptavidin coated biosensors were first equilibrated for at least 10 minutes in Octet buffer (10 mM HEPES pH 7.4, 150 mM NaCl, 3 mM EDTA, 0.05% Surfactant P20) supplemented with 1 mg/ml Bovine Serum Albumin (SigmaAldrich). Enzymatically biotinylated designs were immobilized onto the biosensors by dipping the biosensors into a solution with 10-50 nM protein for 30-120 s. This was followed by dipping in fresh octet buffer to establish a baseline for 120 s. Titration experiments were performed at 25° C. while rotating at 1,000 r.p.m. […]

The target in another data set is T3, 274B53. Nature of the data set: SEC binding assay (Superdex 200, normalised A230) of A, B and the mixture AB. Here is the method:
as §1

A further data set concerns the target T4, LHD101 chainB. Nature of the data set: BLI, dissociation rate constant (kdis). Here is the method:
Biolayer interferometry experiments were performed on an OctetRED96 BLI system (ForteBio, Menlo Park, CA). Streptavidin coated biosensors were first equilibrated for at least 10 minutes in Octet buffer (10 mM HEPES pH 7.4, 150 mM NaCl, 3 mM EDTA, 0.05% Surfactant P20) supplemented with 1 mg/ml Bovine Serum Albumin (SigmaAldrich). Enzymatically biotinylated designs were immobilized onto the biosensors by dipping the biosensors into a solution with 10-50 nM protein for 30-120 s. This was followed by dipping in fresh octet buffer to establish a baseline for 120 s. Titration experiments were performed at 25° C. while rotating at 1,000 r.p.m. Association of designs was allowed by dipping biosensors in solutions containing designed protein diluted in octet buffer until equilibrium was approached followed by dissociation by dipping the biosensors into fresh buffer solution in order to monitor the dissociation kinetics. Steady-state and global kinetic fits were performed using the manufacturer's software (Data Analysis 9.1) assuming a 1:1 binding model.
A general note: BLI is a label-free optical method that tracks binding on a fibre tip over time.

Another data set concerns the target T5, DF202. Nature of the data set: SEC of mixed components; trimer listed in Table 6. The method, then: as §1

Residue numbers refer to the chain shown, from its start. Names may count otherwise.

Consider B1, for which the binding result in data set [1] was “binds”. In the case of B2, the binding result in the data set with 101B62 and with 101B14 was “binds” each time.

B3: the binding result with LHD101 chainA is given as “binds”. In the case of B4, the binding result in data set [1] is “binds”. As to B5, the binding result in data set [1] was “no binding (tested: 114.0 uM)”. On to B6, for which, in data set [1], the binding result was “binds”.

B7: the binding result in the data set with 274B53 was “binds”. In the case of B8, the koff with LHD101 chainB was determined as 0.00653 s⁻¹.

In the data set with LHD101 chainB, B9 yielded a koff of 0.0113 s⁻¹.

On to B10, for which, in the data set with LHD101 chainB, the koff was 0.0102 s⁻¹. Same read-out and setting: the value for B11 was 0.00941 s⁻¹. As for B12, in the data set with DF202, the binding result is reported as “binds”.

What is called koff is the first-order rate constant of dissociation.
